Reference: patent US20100310591A1 (published 2010)
Non-standard residues stand in square brackets, D forms with d. Ava = NCCCCC(=O)O

B1: Hybrid 2, Ac-LRMK-ava-IAYLKQATAK-NH2 (peptide)
peptide: Ac-LRMK[Ava]IAYLKQATAK-NH2
SMILES: CC[C@H](C)[C@H](NC(=O)CCCCNC(=O)[C@H](CCCCN)NC(=O)[C@H](CCSC)NC(=O)[C@H](CCCNC(=N)N)NC(=O)[C@H](CC(C)C)NC(C)=O)C(=O)N[C@@H](C)C(=O)N[C@@H](Cc1ccc(O)cc1)C(=O)N[C@@H](CC(C)C)C(=O)N[C@@H](CCCCN)C(=O)N[C@@H](CCC(N)=O)C(=O)N[C@@H](C)C(=O)N[C@H](C(=O)N[C@@H](C)C(=O)N[C@@H](CCCCN)C(N)=O)[C@@H](C)O
B2: Hybrid 3, Ac-LRMK-ava-ava-IAYLKQATAK-NH2 (peptide)
peptide: Ac-LRMK[Ava][Ava]IAYLKQATAK-NH2
SMILES: CC[C@H](C)[C@H](NC(=O)CCCCNC(=O)CCCCNC(=O)[C@H](CCCCN)NC(=O)[C@H](CCSC)NC(=O)[C@H](CCCNC(=N)N)NC(=O)[C@H](CC(C)C)NC(C)=O)C(=O)N[C@@H](C)C(=O)N[C@@H](Cc1ccc(O)cc1)C(=O)N[C@@H](CC(C)C)C(=O)N[C@@H](CCCCN)C(=O)N[C@@H](CCC(N)=O)C(=O)N[C@@H](C)C(=O)N[C@H](C(=O)N[C@@H](C)C(=O)N[C@@H](CCCCN)C(N)=O)[C@@H](C)O
B3: Hybrid 6, Ac-LRMKLPKSAKPVSKIAYLKQATAK-NH2 (peptide)
peptide: Ac-LRMKLPKSAKPVSKIAYLKQATAK-NH2
B4: Hybrid 5, Ac-LRMKLPKSAKPIAYLKQATAK-NH2 (peptide)
peptide: Ac-LRMKLPKSAKPIAYLKQATAK-NH2
B5: Hybrid 1, Ac-IAYLKQATAK-NH2 (antigenic epitope PGCC 95-104 without Ii-Key) (peptide)
peptide: Ac-IAYLKQATAK-NH2
B6: Hybrid 4, Ac-LRMKLPKSIAYLKQATAK-NH2 (peptide)
peptide: Ac-LRMKLPKSIAYLKQATAK-NH2

The binders below were run against murine class II MHC allele E^k on CH27 B cell lymphoma antigen presenting cells (murine) (assay: cell-based or functional assay).
B1 was tested, and the “T cell proliferative response (HT-2 [3H]TdR uptake) at 0.01 nM” value (“T cell proliferative response … at 0.01 nM” below) was 3.4 thousands of cpm, the “T cell proliferative response (HT-2 [3H]TdR uptake) at 0.05 nM” value (shortened to “T cell proliferative response … at 0.05 nM”) was 19.8 thousands of cpm and the “T cell proliferative response (HT-2 [3H]TdR uptake) at 0.18 nM” value (“T cell proliferative response … at 0.18 nM” for short) was 31.2 thousands of cpm. The “T cell proliferative response (HT-2 [3H]TdR uptake) at 0.73 nM” value (“T cell proliferative response … at 0.73 nM” below) was 38.8 thousands of cpm, the “T cell proliferative response (HT-2 [3H]TdR uptake) at 3 nM” value (shortened to “T cell proliferative response … at 3 nM”) was 30.1 thousands of cpm and the “T cell proliferative response (HT-2 [3H]TdR uptake) at 12 nM” value (from here on “T cell proliferative response … at 12 nM”) was 21.9 thousands of cpm. For the same binder, the “T cell proliferative response (HT-2 [3H]TdR uptake) at 47 nM” value (from here on “T cell proliferative response … at 47 nM”) was 20.8 thousands of cpm, the “T cell proliferative response (HT-2 [3H]TdR uptake) at 188 nM” value (from here on “T cell proliferative response … at 188 nM”) was 27.2 thousands of cpm and the “T cell proliferative response (HT-2 [3H]TdR uptake) at 750 nM” value (shortened to “T cell proliferative response … at 750 nM”) was 23.9 thousands of cpm. For the same binder, the “T cell proliferative response (HT-2 [3H]TdR uptake) at 3000 nM” value (“T cell proliferative response … at 3000 nM” below) was 25.1 thousands of cpm.
With B2 the “T cell proliferative response … at 0.01 nM” value was 0.6 thousands of cpm, the “T cell proliferative response … at 0.05 nM” value was 5.3 thousands of cpm and the “T cell proliferative response … at 0.18 nM” value was 21.6 thousands of cpm. The “T cell proliferative response … at 0.73 nM” value was 22.3 thousands of cpm, the “T cell proliferative response … at 3 nM” value was 27.9 thousands of cpm and the “T cell proliferative response … at 12 nM” value was 29.5 thousands of cpm. The “T cell proliferative response … at 47 nM” value was 26.2 thousands of cpm, the “T cell proliferative response … at 188 nM” value was 26.2 thousands of cpm and the “T cell proliferative response … at 750 nM” value was 31.7 thousands of cpm. The “T cell proliferative response … at 3000 nM” value was 31.9 thousands of cpm.
In the case of B3, the “T cell proliferative response … at 0.01 nM” value is reported as 2.9 thousands of cpm, the “T cell proliferative response … at 0.05 nM” value is reported as 2.4 thousands of cpm and the “T cell proliferative response … at 0.18 nM” value is reported as 11.9 thousands of cpm. The “T cell proliferative response … at 0.73 nM” value was 28.7 thousands of cpm, the “T cell proliferative response … at 3 nM” value was 31.4 thousands of cpm and the “T cell proliferative response … at 12 nM” value was 39.2 thousands of cpm. The “T cell proliferative response … at 47 nM” value was 25.3 thousands of cpm, the “T cell proliferative response … at 188 nM” value was 26.9 thousands of cpm and the “T cell proliferative response … at 750 nM” value was 23.4 thousands of cpm. For the same binder, the “T cell proliferative response … at 3000 nM” value was 21.5 thousands of cpm.
With B4 the “T cell proliferative response … at 0.01 nM” value was 14.3 thousands of cpm, the “T cell proliferative response … at 0.05 nM” value was 21.3 thousands of cpm and the “T cell proliferative response … at 0.18 nM” value was 36.7 thousands of cpm. The “T cell proliferative response … at 0.73 nM” value was 30.1 thousands of cpm, the “T cell proliferative response … at 3 nM” value was 31.4 thousands of cpm and the “T cell proliferative response … at 12 nM” value was 44.6 thousands of cpm. The “T cell proliferative response … at 47 nM” value was 26.2 thousands of cpm, the “T cell proliferative response … at 188 nM” value was 29.1 thousands of cpm and the “T cell proliferative response … at 750 nM” value was 27.5 thousands of cpm. For the same binder, the “T cell proliferative response … at 3000 nM” value was 27.3 thousands of cpm.
B5 was tested, and the “T cell proliferative response … at 0.01 nM” value was 0 thousands of cpm, the “T cell proliferative response … at 0.05 nM” value was 0 thousands of cpm and the “T cell proliferative response … at 0.18 nM” value was 0 thousands of cpm. The “T cell proliferative response … at 0.73 nM” value was 4 thousands of cpm, the “T cell proliferative response … at 3 nM” value was 0.4 thousands of cpm and the “T cell proliferative response … at 12 nM” value was 10.9 thousands of cpm. For the same binder, the “T cell proliferative response … at 47 nM” value was 29.5 thousands of cpm, the “T cell proliferative response … at 188 nM” value was 32.4 thousands of cpm and the “T cell proliferative response … at 750 nM” value was 27.8 thousands of cpm. For the same binder, the “T cell proliferative response … at 3000 nM” value was 25.2 thousands of cpm.
B6 was tested, and the “T cell proliferative response … at 0.01 nM” value was 2.5 thousands of cpm, the “T cell proliferative response … at 0.05 nM” value was 5.8 thousands of cpm and the “T cell proliferative response … at 0.18 nM” value was 9.1 thousands of cpm. The “T cell proliferative response … at 0.73 nM” value was 19.2 thousands of cpm, the “T cell proliferative response … at 3 nM” value was 19 thousands of cpm and the “T cell proliferative response … at 12 nM” value was 23.1 thousands of cpm. For the same binder, the “T cell proliferative response … at 47 nM” value was 19.5 thousands of cpm, the “T cell proliferative response … at 188 nM” value was 20.8 thousands of cpm and the “T cell proliferative response … at 750 nM” value was 23.3 thousands of cpm. For the same binder, the “T cell proliferative response … at 3000 nM” value was 25.2 thousands of cpm.
